Target: 重组PSMA蛋白片段 (human PSMA residues 307-750 with β2M and His tag, expressed in E. coli) (human, UniProt Q04609 307-750)
Experiment: indirect ELISA, PSMA protein coated at 100 μg/ml, antibody titrated from 2000 to 0.625 ng/mL; affinity constant from the antibody concentration at half of the plateau OD

重组PSMA蛋白片段 (human PSMA residues 307-750 with β2M and His tag, expressed in E. coli), sequence (Q04609 307-750): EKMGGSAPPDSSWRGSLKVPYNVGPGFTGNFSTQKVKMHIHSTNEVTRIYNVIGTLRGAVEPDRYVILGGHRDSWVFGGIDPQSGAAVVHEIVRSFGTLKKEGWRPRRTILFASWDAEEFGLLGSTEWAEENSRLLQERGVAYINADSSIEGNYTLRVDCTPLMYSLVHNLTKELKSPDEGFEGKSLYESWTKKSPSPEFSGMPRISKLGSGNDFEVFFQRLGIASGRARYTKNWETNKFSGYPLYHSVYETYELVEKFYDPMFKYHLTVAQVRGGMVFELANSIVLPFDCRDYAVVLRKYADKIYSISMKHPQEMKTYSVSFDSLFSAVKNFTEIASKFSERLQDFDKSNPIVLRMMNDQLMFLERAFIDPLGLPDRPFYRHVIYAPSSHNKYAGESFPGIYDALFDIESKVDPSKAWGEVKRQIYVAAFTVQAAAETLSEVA

B1: 抗PSMA蛋白单克隆抗体(11D1E5E10) (antibody, V domains shown)
VH: QVQLQQSGPELARPGASVKMSCKASGYTFTSYTIHWVKQRPGQGLEWIGYISPSSGYTNYNQNFKDQATLTADISSSTAYMQLSSLTSEDSAVYYCARSGYRYDWYFDVWGAGTTVTVSS
VL: DIQMTQSPSSLSASLGGKVTITCKASQDINKYIAWYQHKPGKGPRLLIHYTSTLQPGIPSRFSGSGSGRDYSFSISNLEPEDIATYYCLQYDNLWTFGGGTKLEIK
notes: also called CGMCC NO.19683; PSMA单克隆抗体
Ka: 4.96e+09 M⁻¹
